The text below walks through data of patent US20090208410A1, “ED-B FIBRONECTIN AS STRATIFICATION MARKER FOR ANTI-TUMOR DRUGS” (priority 2007, published 2009).

The assay concerns NCI-H292 and Calu-6 tumor tissue. Kind of assay: In vitro binding of biotinylated AP39 to frozen sections of tumor tissue (ExtrAvidin / DAB staining). Also on record: species or system human. The settings on record: frozen sections (5-10 μm); NCI-H292 (FIG. 1A) compared to Calu-6 (FIG. 1B). The procedure: Binding studies were performed in two human NSCLC tumor models in mice: NCI-H292 which is an erlotinib-sensitive epithelial-type model, and Calu-6 which is an erlotinib-resistant mesenchymal-type model.
TCEP-reduced AP39 was biotinylated using 3-(N-maleimidopropionyl) biocytin (Sigma). The in vitro binding of biotinylated AP39 to frozen sections (5-10 μm) of NCI-H292 and Calu-6 tumor tissue was determined by utilizing ExtrAvidin (Sigma) and Liquid DAB Substrate Pack (BioGenex) according to the protocols of the manufacturers.

B1: biotinylated AP39: TCEP-reduced AP39 biotinylated using 3-(N-maleimidopropionyl) biocytin (conjugate)
scFv: EVQLLESGGGLVQPGGSLRLSCAASGFTFSSFSMSWVRQAPGKGLEWVSSISGSSGTTYYADSVKGRFTISRDNSKNTLYLQMNSLRAEDTAVYYCAKPFPYFDYWGQGTLVTVSSGDGSSGGSGGASTGEIVLTQSPGTLSLSPGERATLSCRASQSVSSSFLAWYQQKPGQAPRLLIYYASSRATGIPDRFSGSGSGTDFTLTISRLEPEDFAVYYCQQTGRIPPTFGQGTKVEIKGGGCA
With B1, the “binding to tumor tissue, NCI-H292 compared to Calu-6” value is reported as “more extensive binding”.
